Measured values as given in paper PMC7552397, “Crystal structure of caspase-11 CARD provides insights into caspase-11 activation” (Cell Discovery, 2020).
Substitutions are numbered along the chain they refer to. Names may count otherwise.

T1: caspase-11 p20 subunit of the catalytic domain (murine, UniProt P70343 60-266)
T1 construct: caspase-11, murine, p20 subunit, residues 60–266; source: E. coli, by auto-processing of MBP-tagged full-length wild-type caspase-11, purified
T1 sequence (looked up): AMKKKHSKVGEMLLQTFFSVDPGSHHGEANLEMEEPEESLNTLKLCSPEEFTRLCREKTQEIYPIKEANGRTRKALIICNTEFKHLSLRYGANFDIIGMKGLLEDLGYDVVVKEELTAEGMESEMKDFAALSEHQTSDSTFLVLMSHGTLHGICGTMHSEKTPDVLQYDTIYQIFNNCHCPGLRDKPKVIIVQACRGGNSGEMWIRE

B1: MBP-caspase-11 protein carrying only the C254A mutation (C254A-caspase-11) (enzyme, murine, UniProt P70343 1-373, looked up)
chain: MAENKHPDKPLKVLEQLGKEVLTEYLEKLVQSNVLKLKEEDKQKFNNAERSDKRWVFVDAMKKKHSKVGEMLLQTFFSVDPGSHHGEANLEMEEPEESLNTLKLCSPEEFTRLCREKTQEIYPIKEANGRTRKALIICNTEFKHLSLRYGANFDIIGMKGLLEDLGYDVVVKEELTAEGMESEMKDFAALSEHQTSDSTFLVLMSHGTLHGICGTMHSEKTPDVLQYDTIYQIFNNCHCPGLRDKPKVIIVQAARGGNSGEMWIRESSKPQLCRGVDLPRNMEADAVKLSHVEKDFIAFYSTTPHHLSYRDKTGGSYFITRLISCFRKHACSCHLFDIFLKVQQSFEKASIHSQMPTIDRATLTRYFYLFPGN
notes: caspase-11, murine, full-length protein with C254A; also called MBP-caspase-11 C254A; source: E. coli, purified (gel filtration); not shown: MBP, N-terminal, kept; His6, C-terminal, kept
B2: MBP-tagged caspase-11 CARD, residues 1–101 (WT-CARD^aa1–101) (domain or fragment, murine, UniProt P70343 1-101, looked up)
chain: MAENKHPDKPLKVLEQLGKEVLTEYLEKLVQSNVLKLKEEDKQKFNNAERSDKRWVFVDAMKKKHSKVGEMLLQTFFSVDPGSHHGEANLEMEEPEESLNT
notes: source: E. coli Rosetta and BL21 (DE3), purified (nickel column, Superdex 200 gel filtration); not shown: MBP, N-terminal, kept; His6, C-terminal, kept
B3: MBP-tagged WT-CARD^aa1–101 with the first ten amino acids replaced by a GS repeat sequence (GS repeat mutant) (domain or fragment, murine)
chain: B2 chain with M1G, A2S, E3G, N4S, K5G, H6S, P7G, D8S, K9G, P10S
notes: flexible GS repeat that replaces the first ten amino acids of caspase-11; source: E. coli, purified (nickel column, gel filtration); not shown: MBP, N-terminal, kept; His6, C-terminal, kept
B4: MBP-tagged caspase-11 CARD, residues 1–101, V13A L14A L17A V21A (VLLV-CARD^aa1–101) (domain or fragment, murine, UniProt P70343 1-101, looked up)
chain: B2 chain with V13A, L14A, L17A, V21A
notes: source: E. coli, purified (nickel column, gel filtration); not shown: MBP, N-terminal, kept; His6, C-terminal, kept
B5: caspase-11 p10 subunit of the catalytic domain (domain or fragment, murine, UniProt P70343 286-373, looked up)
chain: AVKLSHVEKDFIAFYSTTPHHLSYRDKTGGSYFITRLISCFRKHACSCHLFDIFLKVQQSFEKASIHSQMPTIDRATLTRYFYLFPGN
notes: caspase-11, murine, p10 subunit, residues 286–373; source: E. coli, by auto-processing of MBP-tagged full-length wild-type caspase-11, purified

Columns and labels:
[1] = biological target: the molecule itself; assay: SEC; gel filtration on Superdex 200, 250 mM NaCl, 10 mM Tris-HCl pH 8.0; MBP-tagged proteins, 1 mg each where told
[2] = biological target: the molecule itself; assay: SEC-MALS; DAWN HELEOS 8+, room temperature, samples at 1 mg/mL in 250 mM NaCl, 10 mM Tris-HCl pH 8.0; ASTRA analysis
[3] = biological target: the molecule itself; assay: AUC; sedimentation velocity, 50,000 r.p.m., 20.0 °C, 250 mM NaCl, 10 mM Tris-HCl pH 8.0; 0.187 and 1.53 mg/mL; c(s) distributions; monomer to homodimer and homotetramer
[4] = biological target: T1, caspase-11 p20 subunit of the catalytic …; assay: SEC; analytical gel-filtration column of auto-processed wild-type caspase-11 from E. coli; the fraction then on an SDS gel, bands identified by N-terminal sequencing and mass spectrum; details: both partners purified

Binder | binding result [1] | further results
B1 | binds | –
B2 | – | stoichiometry N [2]: 4; stoichiometry N [3]: 2
B3 | binds | –
B4 | binds | –
B5 | – | binding result [4]: binds
